We go through six variants from IntAct's records for PubMed 29892012.

The chains are these.
B1: E3 ubiquitin-protein ligase LNX (Homo sapiens), Q8TBB1 (parent)
chain: MNQPESANDPEPLCAVCGQAHSLEENHFYSYPEEVDDDLICHICLQALLDPLDTPCGHTYCTLCLTNFLVEKDFCPMDRKPLVLQHCKKSSILVNKLLNKLLVTCPFREHCTQVLQRCDLEHHFQTSCKGASHYGLTKDRKRRSQDGCPDGCASLTATAPSPEVSAAATISLMTDEPGLDNPAYVSSAEDGQPAISPVDSGRSNRTRARPFERSTIRSRSFKKINRALSVLRRTKSGSAVANHADQGRENSENTTAPEVFPRLYHLIPDGEITSIKINRVDPSESLSIRLVGGSETPLVHIIIQHIYRDGVIARDGRLLPGDIILKVNGMDISNVPHNYAVRLLRQPCQVLWLTVMREQKFRSRNNGQAPDAYRPRDDSFHVILNKSSPEEQLGIKLVRKVDEPGVFIFNVLDGGVAYRHGQLEENDRVLAINGHDLRYGSPESAAHLIQASERRVHLVVSRQVRQRSPDIFQEAGWNSNGSWSPGPGERSNTPKPLHPTITCHEKVVNIQKDPGESLGMTVAGGASHREWDLPIYVISVEPGGVISRDGRIKTGDILLNVDGVELTEVSRSEAVALLKRTSSSIVLKALEVKEYEPQEDCSSPAALDSNHNMAPPSDWSPSWVMWLELPRCLYNCKDIVLRRNTAGSLGFCIVGGYEEYNGNKPFFIKSIVEGTPAYNDGRIRCGDILLAVNGRSTSGMIHACLARLLKELKGRITLTIVSWPGTFL
partner: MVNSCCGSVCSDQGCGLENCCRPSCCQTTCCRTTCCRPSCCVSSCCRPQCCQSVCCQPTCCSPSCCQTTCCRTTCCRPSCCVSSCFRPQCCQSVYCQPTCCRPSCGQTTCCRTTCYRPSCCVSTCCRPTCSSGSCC
B2: Histone-lysine N-methyltransferase SMYD1 (Homo sapiens), Q8NB12 (parent)
chain: MTIGRMENVEVFTAEGKGRGLKATKEFWAADIIFAERAYSAVVFDSLVNFVCHTCFKRQEKLHRCGQCKFAHYCDRTCQKDAWLNHKNECSAIKRYGKVPNENIRLAARIMWRVEREGTGLTEGCLVSVDDLQNHVEHFGEEEQKDLRVDVDTFLQYWPPQSQQFSMQYISHIFGVINCNGFTLSDQRGLQAVGVGIFPNLGLVNHDCWPNCTVIFNNGNHEAVKSMFHTQMRIELRALGKISEGEELTVSYIDFLNVSEERKRQLKKQYYFDCTCEHCQKKLKDDLFLGVKDNPKPSQEVVKEMIQFSKDTLEKIDKARSEGLYHEVVKLCRECLEKQEPVFADTNIYMLRMLSIVSEVLSYLQAFEEASFYARRMVDGYMKLYHPNNAQLGMAVMRAGLTNWHAGNIEVGHGMICKAYAILLVTHGPSHPITKDLEAMRVQTEMELRMFRQNEFMYYKMREAALNNQPMQVMAEPSNEPSPALFHKKQ
partner: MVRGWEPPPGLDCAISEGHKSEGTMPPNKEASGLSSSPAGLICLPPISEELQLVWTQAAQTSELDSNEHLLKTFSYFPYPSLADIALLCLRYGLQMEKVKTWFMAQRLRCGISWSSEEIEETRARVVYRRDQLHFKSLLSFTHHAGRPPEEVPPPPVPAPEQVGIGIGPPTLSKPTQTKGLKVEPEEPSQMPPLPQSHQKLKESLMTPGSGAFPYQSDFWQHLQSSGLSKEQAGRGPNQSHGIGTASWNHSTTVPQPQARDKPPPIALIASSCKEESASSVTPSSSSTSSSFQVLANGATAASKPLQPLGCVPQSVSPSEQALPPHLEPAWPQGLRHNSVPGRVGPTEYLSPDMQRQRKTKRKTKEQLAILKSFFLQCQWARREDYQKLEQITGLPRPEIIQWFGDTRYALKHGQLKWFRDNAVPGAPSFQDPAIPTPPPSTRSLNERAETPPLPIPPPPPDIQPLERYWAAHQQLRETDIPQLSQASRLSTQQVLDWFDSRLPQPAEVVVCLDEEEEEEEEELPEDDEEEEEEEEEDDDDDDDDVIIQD
B3: Abl interactor 2 (Homo sapiens), Q9NYB9 (parent)
chain: MAELQMLLEEEIPGGRRALFDSYTNLERVADYCENNYIQSADKQRALEETKAYTTQSLASVAYLINTLANNVLQMLDIQASQLRRMESSINHISQTVDIHKEKVARREIGILTTNKNTSRTHKIIAPANLERPVRYIRKPIDYTILDDIGHGVKWLLRFKVSTQNMKMGGLPRTTPPTQKPPSPPMSGKGTLGRHSPYRTLEPVRPPVVPNDYVPSPTRNMAPSQQSPVRTASVNQRNRTYSSSGSSGGSHPSSRSSSRENSGSGSVGVPIAVPTPSPPSVFPAPAGSAGTPPLPATSASAPAPLVPATVPSSTAPNAAAGGAPNLADGFTSPTPPVVSSTPPTGHPVQFYSMNRPASRHTPPTIGGSLPYRRPPSITSQTSLQNQMNGGPFYSQNPVSDTPPPPPPVEEPVFDESPPPPPPPEDYEEEEAAVVEYSDPYAEEDPPWAPRSYLEKVVAIYDYTKDKEDELSFQEGAIIYVIKKNDDGWYEGVMNGVTGLFPGNYVESIMHYSE
partner: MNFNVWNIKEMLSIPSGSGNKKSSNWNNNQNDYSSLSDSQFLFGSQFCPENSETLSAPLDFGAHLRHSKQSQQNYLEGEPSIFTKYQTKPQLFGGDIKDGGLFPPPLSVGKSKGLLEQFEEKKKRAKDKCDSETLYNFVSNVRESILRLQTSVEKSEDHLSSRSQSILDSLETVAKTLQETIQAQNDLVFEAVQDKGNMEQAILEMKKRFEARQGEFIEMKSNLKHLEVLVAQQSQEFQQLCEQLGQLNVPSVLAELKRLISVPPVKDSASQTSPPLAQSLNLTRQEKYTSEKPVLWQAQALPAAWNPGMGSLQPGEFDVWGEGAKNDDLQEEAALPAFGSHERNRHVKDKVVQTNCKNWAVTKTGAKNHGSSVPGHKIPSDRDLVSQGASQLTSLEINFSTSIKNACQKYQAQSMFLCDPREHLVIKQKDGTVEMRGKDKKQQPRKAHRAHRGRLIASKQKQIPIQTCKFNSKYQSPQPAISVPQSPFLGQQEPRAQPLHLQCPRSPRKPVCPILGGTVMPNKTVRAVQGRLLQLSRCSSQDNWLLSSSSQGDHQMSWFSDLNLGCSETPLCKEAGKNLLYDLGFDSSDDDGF
B4: E3 ubiquitin-protein ligase LNX (Homo sapiens), Q8TBB1 (parent)
chain: B1 chain
partner: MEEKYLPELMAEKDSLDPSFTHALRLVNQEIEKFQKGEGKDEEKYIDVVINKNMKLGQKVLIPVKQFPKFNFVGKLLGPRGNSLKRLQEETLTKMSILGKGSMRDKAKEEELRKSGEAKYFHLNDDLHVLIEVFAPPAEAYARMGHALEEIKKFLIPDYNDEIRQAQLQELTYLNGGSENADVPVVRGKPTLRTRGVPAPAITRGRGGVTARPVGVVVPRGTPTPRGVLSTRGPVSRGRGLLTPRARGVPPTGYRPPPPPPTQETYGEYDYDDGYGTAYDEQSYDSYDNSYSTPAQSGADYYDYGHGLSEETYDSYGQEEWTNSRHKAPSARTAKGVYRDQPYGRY
B5: MOB kinase activator 3C (Homo sapiens), Q70IA8 (parent)
chain: MALCLKQVFAKDKTFRPRKRFEPGTQRFELYKKAQASLKSGLDLRSVVRLPPGENIDDWIAVHVVDFFNRINLIYGTMAERCSETSCPVMAGGPRYEYRWQDERQYRRPAKLSAPRYMALLMDWIEGLINDEEVFPTRVGVPFPKNFQQVCTKILTRLFRVFVHVYIHHFDSILSMGAEAHVNTCYKHFYYFIREFSLVDQRELEPLREMTERICH
partner: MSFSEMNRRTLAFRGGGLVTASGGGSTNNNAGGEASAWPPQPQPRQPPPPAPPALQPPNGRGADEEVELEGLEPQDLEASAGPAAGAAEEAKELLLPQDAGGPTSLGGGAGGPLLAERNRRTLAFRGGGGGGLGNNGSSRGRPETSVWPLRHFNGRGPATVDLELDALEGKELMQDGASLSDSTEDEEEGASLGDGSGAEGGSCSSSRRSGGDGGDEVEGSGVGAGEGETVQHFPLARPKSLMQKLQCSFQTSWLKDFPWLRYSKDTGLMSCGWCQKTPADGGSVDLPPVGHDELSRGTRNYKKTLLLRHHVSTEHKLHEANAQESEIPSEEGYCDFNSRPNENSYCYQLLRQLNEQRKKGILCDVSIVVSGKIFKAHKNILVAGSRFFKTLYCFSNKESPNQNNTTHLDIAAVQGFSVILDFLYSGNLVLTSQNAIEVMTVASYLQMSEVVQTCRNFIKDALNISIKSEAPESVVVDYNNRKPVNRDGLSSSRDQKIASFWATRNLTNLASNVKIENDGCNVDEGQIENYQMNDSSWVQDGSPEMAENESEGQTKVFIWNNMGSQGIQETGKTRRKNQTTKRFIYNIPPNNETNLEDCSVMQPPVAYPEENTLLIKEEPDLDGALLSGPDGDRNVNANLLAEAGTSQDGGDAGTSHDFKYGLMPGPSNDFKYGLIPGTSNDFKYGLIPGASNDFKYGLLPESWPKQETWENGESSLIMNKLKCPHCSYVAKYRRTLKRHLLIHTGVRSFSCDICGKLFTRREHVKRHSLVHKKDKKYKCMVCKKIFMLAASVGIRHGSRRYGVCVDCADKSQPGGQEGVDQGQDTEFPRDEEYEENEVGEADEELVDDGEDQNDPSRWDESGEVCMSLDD

In one assay the parent is B1. The conditions noted are these: with kra42_human KRTAP4-2, Q9BYR5.
Take E295K: the “effect of a mutation on the interaction” value was “disrupting interaction strength”.

In another assay the parent is B2. The conditions noted are these: with homez_human HOMEZ.
For Q443R, the “effect of a mutation on the interaction” value is recorded as “with no effect”.

The next assay covers variants of B3. The conditions noted are these: with iho1_human IHO1, Q8IYA8.
With R373C, the “effect of a mutation on the interaction” value is “with no effect”.

The next assay covers variants of B3. The note with it: with iho1_human IHO1, Q8IYA8. This is another data set of the same source.
Regarding E202K, the “effect of a mutation on the interaction” value is listed as “with no effect”.

Variants of B4 are the subject of the next assay. The note with it: with khdr3_human KHDRBS3, O75525.
E295K: the “effect of a mutation on the interaction” value is listed as “disrupting interaction strength”.

Variants of B5 are the subject of the next assay. The note with it: with zbt10_human ZBTB10, Q96DT7.
In the case of I173F, the “effect of a mutation on the interaction” value is on record as “disrupting interaction strength”.
